Results on one protein are retold here after publication PMC7761029, “Identifying Genes Involved in Alkaloid Biosynthesis in Vinca minor through Transcriptomics and Gene Co-Expression Analysis” (Biomolecules, 2020).

Substrate in the data set “purified protein”: C[S+](CC[C@H](N)C(=O)O)C[C@H]1O[C@@H](n2cnc3c(N)ncnc32)[C@H](O)[C@@H]1O
Briefly: purified protein. The note with it: methyl donor, fixed 16-hydroxytabersonine, 1-200 µM SAM, 50 mM potassium phosphate pH 7, 25 mM ascorbic acid, 30 °C.

Substrate in data set [1]: [H][C@]12N3CC=C[C@@]1(CC)CC(C(=O)OC)=C1Nc4cc(O)ccc4[C@@]12CC3
Briefly: initial velocities of 16-methoxytabersonine formation, LC-MS, Michaelis-Menten non-linear regression. Type of data set: biochemical, Vinca minor. The note with it: fixed SAM, 0.2-100 µM substrate, 50 mM potassium phosphate pH 7, 25 mM ascorbic acid, 30 °C.

B1: Vm16OMT (Vinca minor) (protein)
chain: MDVQSDEFSKAQAHIWSQVLCHIPTATIKCAIELGIPDAIDNHGKAMTLAELTNSLPLINPSKAPFVRRLMRILVKNGFFSEQQITNDHIAYGLTPSSRILLKNEPLNLRGLVLANLDPSHMKSWVALSEWFQNDNEEAKTAFEIAHNGKNFWDYSAEDTEHAEIFNEAMASDSKLVSELLINTEYKLLFEGLTSMVDVGGGTGTIAKAIAKTFPNLNCTVFDLPHVVANLESMGNLEFVAGDMFVKIPPANAIFLKWILHDWNDEDCVKILKACKKAIPEKEKGGKVIVIDTVIGSKINDDESIKAQLSMDMGMMVDFASKERDEKEWASLFKEAGFSNYKIFPKLDFIRSVIEVYP
In the case of B1, the results for the Km (in the data set “purified protein”; in data set [1]) were 46.2 ± 6.1 µM and 0.94 ± 0.06 µM, respectively. The values for the turnover number (kcat) (in “purified protein”; in data set [1]) were 0.039 s⁻¹ and 0.0144 s⁻¹, respectively.
